Experiment: soluble on expression in E. coli; label from the status in PepcDB or PDB records

Soluble on expression in E. coli, not soluble:
MGSDKIHHHHHHMAFIAGEIAAVLDLPEVLRRRLFVAALLHDVGALSPEEKMDLYASKVEECDTHCIRGARLLHQVDGFGEEGRVLRLHHATLRDGSLADVDEDTARLAQIVHLSDLVDRALDRGRYVLHQADTMCDMARDLARCDFEVSIVRAFLEVARREDFWLQMVLPTLGQHLEAISPCRGEMLDACGVEVHAGLVQGMVDFRSSFTAAHSAGVAEAADALGGYCDLSPERRVVLRIAGLLHDLGKMAVPTSILEKPSGLTKAEFAFMRQHTFHTYRLLRGVDGLGGMAAWAAYHHEKLDGSGYPFHLEGRALDPQARIIGVADIFTAMAEDRPYRKGQGREGVLRVLRDECTTGRVDGELVETVAESYPDMVGRVLDAQHAARSRFSDVLQPAGEKGAKADQST, MGSDKIHHHHHHMAFIKPEQQFNPDALHNLVIGIAADMGKHDSGMHHHHKAQLLYASAGCMRFSLADTQVVLPPTRAAWLPAGVEHHVTMRNVVAYRSLYFEPEAVASLPSEVTIFHVNPLLKALIDTMSYWPWNKPRYSQHNAFALFCEELENAKAENLALPLPQDKRLQTWLKQVLQQEMQPANLKEMAIEIGASERTISRIFSSQTGMAYQAWRQQWRLLSAIEQLAAGTSVAQAGFNLQFSSDSAFISFFKQYTGTTPAQYFK, MGSDKIHHHHHHMAFKTPLADRMRPQSLEQMVGQQDLLKAGQPLRQIIDQHVNIPLILWGPPGTGKTSLAQIIASQDDYPFVAFNASTENKAQLTKAIAQYPEQSFVLLIDEIHRMTKTLQDFLLPYLENGHVMLIGSTTENPIMSIVPAIRSRCQIFEFQPLSDTDIEIALRRAVTDIYNLTDDQVDAKALNLIAISAEGDLRIALNILETLHAIDQKQITVAAVQHFAQQQHFSYDRKATKHYDYLSAYSDSMAGSDTDAALYYLTILLKNDDLPSVVRRLREIPYTYIGLANPEQVTQIVVAANQAEKIGMPKAKYPLMFATMLMCISPKSGSFDQSWEKLDQDTQNPSQHPMPRGLRDMHYKHSEEITGGGLIDNPFQMPHQIAQQNYMPKGLAGRRYYYPKDNENERKLGAQYLKLHRFIYNEDYHE, MGSDKIHHHHHHMAGKLFIVILTPVCNGNCLYCGGYDEGLMPPKIQYPLESLKKIADGNSVAFYGGEPLLEMEKMKEIMDSVKAEHFILQTNGLKLNRLEDEYIRRFSTILVSFDGRREVHDLYRGNYERVLENVLNVRRKGFEGELIARMVASQETDIYEDVMHILNLDCFTHVHWQIDAVWSSDGVWRDFERWVERYNAGVRKLVKFWASELRKGVLHGLVPFMGVATAIFKPFTHPPCSSGFESFAIATDGRILACPICPDLDWNEVGSLDEGIKRRLEILEPCLSCSYFRFCGGRCVFFNRERLWGDRGFRLVCSTVKNLVDSILACKHLILANKEKIMYPRFLNTTEIIP, MGSDKIHHHHHHMAGKQLLLMDGIHKRFGPLIVSAGVTLDVEENEIHALLGENGAGKTVLMSILCGVLSPNEGQIVFKGRPLKLGSPREAIKHRIGMVHQHFMLVPNLTVAENYVLGQGSPFSMIRDMRAVHARILELSDRYGLDVAPDALVSSLSVGERQRVEILKVLYHGIELLILDEPTAVLTPQETDRLLHLLRQLVADGKTVIFISHKLDEVMRVSDRVSVMRDAKVVRTVKTSETTARELARMMVGRDVLMYLPRAPLEPGRVVLSVEHLSCDGEAGLPALRDVSFEVRANEIVGIAGVSGNGQSELALALTGLLPVASGSVTLDGTQLAGLSSYEINQLPMAHIPEDRHRMGIVLPLPLTENVILQRFDKPPFSSRGLLDLNEITRQTRDLMRRFKVKASGPGDRIRNLSGGNQQKLVVGRELDRRFDFLLINQLTRGIDIGATELVMHKILEQRSAGKAILLISTELEELFTLSDRILVMYEGRLVGEIPPDRSRLEEIGLLMAGKSPLSAA, MGSDKIHHHHHHMAGRFDAFVLFAEMRTGSNYLEDSLNTFADINCLGEVFNPTFIGHDNNFEMLGYDMDRREHDPLGLLDAIIDTVDGLPGFRLFHDHDTRVVDRVLPDPRIAKVILTRNPLDSYVSRKIATATGQWKLTDMKHAKTAQIRFDADEFGALLDAVLPFQEYVRQGLLKSGQVAFQVRYEDINDPEMLNGLAAFLGSDERVERASKTLKRQNPAPLRDKVENYEEMVAALSDLDRFGLDKLPELEPDRGAQVPNFVAHPTLGLLFCPIKGAPEKSVLNWMGALGDVGKDALIRKMTQKQLRQWMKDNPGFRSFTVLRHPVVRAYTVFNRFILPDDRPAYADPRKTLRQRYKVPIPENAPGDGWTEAEQKAAFQGFIFFLKGNLAGQTSVRVDQAWATQTAILQGTSSVMVPQAVIHEDHMTEALPALAHQVGAEDVPQVVEEAMPGLHKLKSIYDGKIEQALIDTYRRDYVGFGFPRWNKR, MGSDKIHHHHHHMAGSAGGLSASDGDFFLCDLFDPVPKGDLGTMEHPVFSLATRPDRRILTYEHNGVEITVTPSVKGRATIFDKDILIFCTSQLMAAINANRPVSRTLQLTAHDLLLATGRDRSGDGYKRLRAAFERLAGTRITTNLITGGVEVTQGFGLIEAWQIVRRTRNGRMVSVSVTLSEWLYRAALTKSVLTLSRQYFRMRKPLERRIYELARKHCGRQNEWRVSVDTLLKKSGSASPRRVFRAMLREMIAADALPDYHLQEEPGDILRVTLRDAVIEAAGRPIVSSDTLNQARALMPGWDVYVLEAEWRNWWAATGRPHLRSPDKAFLGWVRTQAARA, MGSDKIHHHHHHMAGTTTTRKKFRVAVSGATVDGREIKPEHLRDAAANYSPDVYGARVNVEHYLSPYPDSDFGAMGDVTALSAEDITDGPLSGRTALYAEIEPSARMKQLTDAGKKVFSSIELHPQFALNGKAYVMGLAMTDTPASLGTERLKFATQQRAQVMAFNNQQAEAPMFSDAIEADVIELTAQRGEEGKQWFNRVMGIMGKGKKSDDERFSQVHQAVEVVAQSQADLSDQFSAVEQARASDKQAIEKLTSDFEALRQKLSVTDGSFSHRPPAGGGNNSQLADY, MGSDKIHHHHHHMAHEMIGTQIVTERLVALLESGTEKVLLIDSRPFVEYNTSHILEAININCSKLMKRRLQQDKVLITELIQHSAKHKVDIDCSQKVVVYDQSSQDVASLSSDCFLTVLLGKLEKSFNSVHLLAGGFAEFSRCFPGLCEGKSTLVPTCISQPCLPVANIGPTRILPNLYLGCQRDVLNKELMQQNGIGYVLNASNTCPKPDFIPESHFLRVPVNDSFCEKILPWLDKSVDFIEKAKASNGCVLVHCLAGISRSATIAIAYIMKRMDMSLDEAYRFVKEKRPTISPNFNFLGQLLDYEKKIKNQTGASGPKSKLKLLHLEKPNEPVPAVSEGGQKSETPLSPPCADSATSEAAGQRPVHPASVPSVPSVQPSLLEDSPLVQALSGLHLSADRLEDSNKLKRSFSLDIKSVSYSASMAASLHGFSSSEDALEYYKPSTTLDGTNKLCQFSPVQELSEQTPETSPDKEEASIPKKLQTARPSDSQSKRLHSVRTSSSGTAQRSLLSPLLRSGSVEDNYHTSFLFGLSTSQQHLTKSAGLGLKGWHSDILAPQTSTPSLTSSWYFATESSHFYSASAIYGGSASYSAYSCSQLPTCGDQVYSVRRRQKPSDRADSRRSWHEESPFEKQFKRRSCQMEFGESIMSENRSREELGKVGSQSSFSGSMEIIEVS, MGSDKIHHHHHHMAIISEHHIFLSDDANVGLQTRLKDAITRAIWDGRFAPGDRLPATRALARHLGISRITVSLAYDALLSTGYIVSIARSGYFVASDAPTRMEIVTPGKGDARDRLDWAARLGPVPPALGAQATPADWRRFRYPFIFGEPDVARFPVDDWRDCVRRGLGKRHFEQVADDASDRDDPFLVEQIVRRSVSGRGVAATVDEVLVTAGAQNALWLMVQVLFGGQGGEVAMEDPGYPELRNLLRQQRLTIHPVPVDRDGLKVDRIPEGVRAVFVTPSHQAPTGATMSMARRQALLERAEAEDFVVIEDDYDYEMSYASPSLPALKSLDQRGRVIYIGSFSKSIFPGLRLGYLTADARVVEHARAIRTLSERHPPGLTQRTVAYFLSEGHYNSHSRRMRMRMARRNEVLREALAEHGLTPALRRATGGTTLWLLGPEDLDADALAVSLRDKSVLIEAGSAFYAGGDAPRNRVRLGFATIETARIADGVALIAEAIREQAPTPR, MGSDKIHHHHHHMAIKATDLFKLVSLSYPSATDDGYFVQENRISEADNTYYQRICFVNHRGGTIAYGFDQKHDRHPLLSPDQQWLAFLSQASDKTTQVFLQAVNGGTAKQFSAEKEGVSYFGWQADSQALFIQTTVGAKPKKTDKQWPQPVTVSRVPYKLNGVGLLPEHVAYELRVQRLRQKTSRLVMGREHEFEVGAISPDGQTLAFTAERLPDDPNDFSQATYLLNLADQQVTMVNDQLPQAALSPEAFSADGKQLLLVGSDNHLPNVSQSHLWHYDLATKTLQDVADDIDFDIPGHVNGDFQQDLSEKVADFATADYYLTIGFDHGKTSLYAGGPDEQLTPLIGGRRHVTDYALTPDHHGVVFTESTMTVPSRLSYFDLATEEEHVIYDPNRRVTRDMGLVTPQTFNFQRDGFEIEGWYFPPQQATASHPAILYVHGGPAVGYGYTFFHEMQFLAA, MGSDKIHHHHHHMAKEKTIYVCRSCGTKYAKWQGNCNACGEWNCIDEEKVPAPASGKHAAKSFMPREQDNRPRLLQDVESGDEERIRLGDEEFDRVLGGGIVKGAFVLLGGEPGIGKSTLILQTVLRLPQLRTLYVSGEESARQLKMRAERLGQAMNGCYVYCETNIERILSRAEELTPDLLVIDSIQTVYTEEMESSAGSVGQIRECAALLLKYCKTTGIPVIVIGHITKEGSIAGPKVLEHIVDTVLLFDGDKHHLYRILRGQKNRYGSTSELGIYEMRQDGLRGVENPSEHLITRNREDLSGIAIAVAMEGIRPILIEAQALVSSAIYANPQRSATGFDIRRMNMLLAVLEKRAGFKLIQKDVFLNIAGGIKIADPATDLAVISAVLASSLDIVIPPAVCMTGEVGLSGEIRPVSRIEQRITEARRIGFKEILVPADNFRQEDAGRFGIRLVPVRKVEEAFRHLFSKGRE, MGSDKIHHHHHHMAKRKKDTMEFRFYELPQGESALVLCGESWKRVYGHDELHLHFHNLLEIGICREGDGNMYLDEDIYQYHDGDITFIPENFPHVTVSYGEVVNFWEYIFIDLRSVIEEMFPNNAAFQNDAVSTISKKAFMTNVYQSPVVAGYINSIIRETNEHKEYSQRTIKLLVQGIVIELLRKYDELPEEDNDVVKGTNMSQIATALDYMNKHYSETIKAGELSSLCNMSETHFRRLFESYINMPPMEYLNLIRVQKACELMKKTNEPMELIAQKCGFTTQSTFNRNFRKFLNTSPYQWKINPENYEHKLLNFRISALKGW, MGSDKIHHHHHHMALKGKGQAKSPNVDDNPQLGLESEIPVAPRSKRQTRQAEEVQAKDPYLDSVKELDDVLLKFKKYSKSMSSIENKVFSSSGGCFKSKNERVNAYSFTCSSFADKIEEYSYDPANSFPYKRGVKLVLKESSIYVEVGADTDMYGICVDVCEFSSTAYVLPITNNFEGYLVTRNPSIKMGEILDINNNGVIIKAGGGPPTVINAYALSDSFTINFAPEDEHQDQARYPKQEYSINLIKVAIFGNRGLEKTVTPEAGG, MGSDKIHHHHHHMALKVLFTGADGYVGALLGPYLLEKGIEAVGLDTGFYRKGWLYPTSAPRPAVITKDIRQVTVADLEGFDAVAHLAELSNDPLGQQSPGLTHEINHGGSMHLAEMARKAGARRFVYMSSCSVYGVGQPEQILDETSPVNPQTAYAECKVKVEEDLTRRADSDFEPCFLRNATAYGASPRQRFDIVLNDLCGLAWTTNKITLQSDGSPWRPLVHALDMCQAVWRSLTAPADAIRGQAYNVGSNDQNYRVIEIARIVADSFPGCELEVGQPSADNRSYRVNFDKIQRVLPEFQCEWTAEKGARQMRQVFERIAMTPEEFRAEPYTRLKMLMRLRASKLLDDKLFWANPMVEAVA

From the DeepSol protein solubility set
